± gives the standard deviation of the averaged measurements.
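Note: PSI is a weighted mean of sequencing reads over stability bins, variants kept only with over 10 reads, mCherry proximal and sfGFP distal, peptide attached via GGGS linker.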

The test system of this data set is Saccharomyces cerevisiae. Description: protein stability index of tFT-peptide fusion (C-terminal peptide) (PSI (0-1 scale)); higher = more stable (slower turnover). The note with it: genetic background: wild type; temperature: 30 C.
Turning to RPRPKRCGPRSV, the protein stability index came out at 0.672 ± 0.052.
Next, RPRQAAAQGGAR: 0.694 ± 0.036; RPRVCFPHIAGT: 0.777 ± 0.11; RPSARSLVSPSP: 0.716 ± 0.025.
Next, RPTGHAPSRALT: 0.659 ± 0.062.
Consider RPVPVPTALIPS, for which the protein stability index is 0.61 ± 0.013.
For the sequence RPVSQRRRKHIG, the protein stability index came to 0.645 ± 0.064.
Next, RPWAKGTGGRCY: 0.723 ± 0.21; RPYGKQTERYVK: 0.672 ± 0.029; RPYLSPPPPTSP: 0.687 ± 0.093.
As for RQFLSLLPCSLP, the protein stability index came out at 0.771 ± 0.094.
As for RQGMGPKLVKHQ, the figure is 0.633 ± 0.1; as for RQHPPLPSFPSP, 0.759 ± 0.06.
As for RQKAQESNTQPP, the figure is 0.73 ± 0.044; as for RQLVNKKIKEKK, 0.7258 ± 0.0051; as for RQPPPRSPPSYL, 0.75 ± 0.063.
In the case of RQQRKIYTDKQD, the protein stability index is 0.754 ± 0.0057.
In turn, RQQSIIDNQIGQ yielded a protein stability index of 0.6802 ± 0.0061.
Next, RRAKMHSRRSLA: 0.648 ± 0.053; RRAKMSWCCKKY: 0.69 ± 0.0098.
The sequence RRCRLNPPIDST returned a protein stability index of 0.683 ± 0.088.
The sequence RREVKKNGNKRN yielded a protein stability index of 0.713 ± 0.073.
RRFKIDKNKIKL had a protein stability index of 0.683 ± 0.018.
Next, RRGKIETKESKK: 0.712 ± 0.044; RRGTRGGGGRER: 0.638 ± 0.019.
Next, RRGWVRWRVGAA: 0.667 ± 0.074.
As for RRLFGLGWDVKI, the figure is 0.7177 ± 0.0034; as for RRMVRLDACASV, 0.659 ± 0.041; as for RRNISRQNKKKR, 0.76 ± 0.11.
Consider RRPPPPRGPSPP, for which the protein stability index stood at 0.713 ± 0.02.
Next, RRPPRVYLQLSI: 0.67 ± 0.066; RRQPPRDQGTPC: 0.795 ± 0.13.
Next, RRREGTVPWYIS: 0.605 ± 0.057.
As for RRRKPAEHTPPW, the protein stability index was found to be 0.755 ± 0.1.
The sequence RRRNSTFTNLDT yielded a protein stability index of 0.6783 ± 0.0045.
Next, RRRSLLLTYSYV: 0.541 ± 0.055; RRSLDQSIQAKC: 0.643 ± 0.055.
Turning to RRTAVEEWGVGG, the protein stability index turned out to be 0.672 ± 0.12.
As for RRTEGLATAGRV, the figure is 0.666 ± 0.072; as for RRVGSGGLEGIG, 0.528 ± 0.019; as for RRVPVVSRSGGG, 0.697 ± 0.043.
Next, RRWGLIGVMSYL: 0.732 ± 0.089; RSAMRLFEPFSP: 0.745 ± 0.19; RSEGEGGKGKRE: 0.687 ± 0.019.
Next, RSFVSRGSILWF: 0.723 ± 0.13; RSGAAREVSGGA: 0.7546 ± 0.0052; RSGRCWSFPFSV: 0.703 ± 0.026.
In turn, RSHRGSPCPLVP returned a protein stability index of 0.69 ± 0.025.
Next, RSISGVNMENVQ: 0.639 ± 0.018; RSLDEPCGFFRP: 0.637 ± 0.023; RSLSLAPSFPLP: 0.697 ± 0.0086.
As for RSPINSRRGGVV, the figure is 0.689 ± 0.0097; as for RSPPAPRFLPAP, 0.652 ± 0.049.
In turn, RSPPPLPSPPSH came in with a protein stability index of 0.709 ± 0.035.
Next, RSPPPPPGPRFP: 0.698 ± 0.019.
Next, RSPPTQGQTPTT: 0.696 ± 0.028; RSRCYSNIRIFI: 0.589 ± 0.048; RSRSELRVFCTS: 0.556 ± 0.011.
As for RSSARPQNRPLP, the figure is 0.733 ± 0.035.
Consider RSSFCILCCLFS, for which the protein stability index was found to be 0.557 ± 0.024.
The sequence RSSIGNLCCRLL displayed a protein stability index of 0.6884 ± 0.0034.
As for RSSPPSPPLLSP, the protein stability index came out at 0.611 ± 0.023.
Next, RSSTYGIMYSYR: 0.715 ± 0.035.
Next, RSYRLRTSRADI: 0.683 ± 0.1; RTHTAALCRTHS: 0.7047 ± 0.0057; RTLAGLLVDSHV: 0.679 ± 0.041.
As for RTLHKKRLLAHR, the figure is 0.693 ± 0.041; as for RTLSSFSPGYLF, 0.8548 ± 0.0033; as for RTLYEAAPLFVG, 0.729 ± 0.051.
Consider RTRLPYVPAPAP, for which the protein stability index was determined as 0.686 ± 0.0092.
As to RTRSVPWEPRYF, the protein stability index came to 0.687 ± 0.03.
As for RTSCEQYERGLM, the figure is 0.673 ± 0.012; as for RTSPRSHVSRSL, 0.79 ± 0.056.
RTVPCCVAENKF displayed a protein stability index of 0.672 ± 0.012.
Next, RVCFVTNLVDVT: 0.721 ± 0.096; RVDALVHLPLRL: 0.629 ± 0.03.
As for RVETYQKMTSRL, the figure is 0.757 ± 0.0092.
As for RVFDPSRSTVVE, the figure is 0.774 ± 0.018.
For the sequence RVGHGHRSPTRV, the protein stability index worked out at 0.677 ± 0.14.
As for RVGRGGGRETRG, the figure is 0.699 ± 0.031; as for RVGRNLRVGGES, 0.69 ± 0.008.
Next, RVGTHDRTRAHG: 0.601 ± 0.02; RVGVRGVVVSMG: 0.612 ± 0.075.
As for RVLGGGVLGVLV, the figure is 0.711 ± 0.0099.
In turn, RVLLYWRGSGVL displayed a protein stability index of 0.577 ± 0.071.
As for RVLSCAFSTLWA, the figure is 0.711 ± 0.12; as for RVMGRHIGRPRE, 0.702 ± 0.015.
Next, RVPDNYLKWSYI: 0.719 ± 0.051; RVRFRVYKGGAL: 0.661 ± 0.041; RVRGDRLGGRGT: 0.706 ± 0.043.
As for RVRGGGPRESGQ, the figure is 0.728 ± 0.024; as for RVSAPPSFHGSF, 0.722 ± 0.014; as for RVSGYTHPLLSC, 0.679 ± 0.079.
As for RVSLREVKAEKN, the protein stability index worked out at 0.682 ± 0.057.
Next, RVTVWHELTVDC: 0.569 ± 0.0083; RVVGGGGEAWRE: 0.73 ± 0.033.
As for RVWAGGGGGDGC, the figure is 0.691 ± 0.021; as for RVYTSAWAPDWR, 0.62 ± 0.056; as for RWCRLGHRWRVV, 0.563 ± 0.054.
RWFTFPVPVPFC: the protein stability index turned out to be 0.642 ± 0.036.
Next, RWGGGKWWRGAE: 0.659 ± 0.018.
In turn, RWSVLSRSCSSY yielded a protein stability index of 0.729 ± 0.034.
As for RWTRFISLTGTG, the figure is 0.637 ± 0.064.
In turn, RWVEGVWGVWCG had a protein stability index of 0.757 ± 0.042.
Next, RYCESKVFKERE: 0.742 ± 0.049; RYFPNRGSGLTY: 0.786 ± 0.037; RYIKSRMLIIER: 0.56 ± 0.049.
Consider RYLVLPDLCPIS, for which the protein stability index was found to be 0.736 ± 0.1.
As for RYPPVQPRRAQR, the figure is 0.593 ± 0.031; as for RYRSRHHSTYVL, 0.635 ± 0.26; as for RYSRVALRPRPP, 0.579 ± 0.052.
As for RYTKYKSYPYDI, the figure is 0.6897 ± 0.0023; as for SACPPIPPPPPP, 0.635 ± 0.026.
As for SAGGCSVMAGNG, the figure is 0.709 ± 0.11.
SAGVIVPGRAGR displayed a protein stability index of 0.761 ± 0.082.
As for SAHPFKSCPIGR, the figure is 0.682 ± 0.0094.

The values are drawn from the supplement of paper PMC10724198.
